Data set [1] is described as follows: Pre-clinical toxicology: serum biochemistry parameters and body weight. Format: in vivo, BALB/c mice. As for the experimental part: Serum biochemistry parameters in BALB/C mice treated with KLH, OXY-KLH, anti-IL-4 mAb, or anti-IL-4 mAb plus OXY-KLH. […] The values for AST (aspartate aminotransferase) were higher among groups, perhaps as a result of muscle injury due from the injections.
(§1) Male BALB/c mice were immunized with KLH, OXY-KLH, anti-IL-4 mAb, or OXY-KLH plus anti-IL-4 mAb. The OXY-KLH and the unconjugated KLH control were administered subcutaneously on days 0, 14 and 28, while the anti-IL-4 mAb was administered intraperitoneally as in EXAMPLE 2. A week after the third immunization, mice were euthanized with CO2 to perform histopathology and clinical pathology by serum chemistry. Organs were harvested and preserved in 10% formaldehyde (methanol free, ultrapure EM grade, Polysciences, Inc., Warminster, PA), and sent to the University of Minnesota School of Veterinary Medicine for histology analysis in the laboratory of Dr. Davis Seelig. Serum was collected by centrifugation at 7500 rpm for three minutes at 4° C. and collected in lithium heparin ([…], Becton, Dickinson and Co., Franklin Lakes, NJ). Frozen samples were sent to Marshfield Labs (Marshfield, WI) for the panel tests analysis.

A short description of data set [2]: Histopathology across four treatment groups. It is filed as in vivo, BALB/c mice. As for the experimental part:
FIG. 12. Co-administration of vaccines and an anti-IL-4 mAb is safe. Histopathology across four treatment groups. […] Occasionally, these regions of were centered on lymphocyte-rich lymphatic vessels. The severity of the lung pathology was similar across the four treatment groups.
as §1

The subject of the next data set is 6OXY-specific GC B cells. The data set can be described thus: 6OXY-specific GC B cells by magnetic enrichment and flow cytometry after OXY-KLH with IL-4. The following applies: IL-4 60,000 IU s.c. with OXY-KLH in alum, seven days after one immunization. It is filed as in vivo, mice. The source says:
FIG. 4. IL-4 increased vaccine-specific GC B cells and post-vaccination GC formation. Mice were immunized subcutaneously once with the OXY-KLH vaccine adsorbed in alum adjuvant with saline or IL-4 (60,000 IU, subcutaneously). At seven days after immunization, lymph nodes and spleens were collected for analysis of antigen-specific B cell populations. Using a two-step procedure, OXY-specific B cells were first isolated by magnetic enrichment using biotinylated oxycodone-based haptens conjugated to streptavidin (SA) conjugated to the fluorescent protein phycoerythrin (PE) or a decoy reagent, and then analyzed by multi-parameter flow cytometry. (A) 6OXY-specific CD38^neg GL7^high “committed” GC B cells; (B) 6OXY-specific CD38^+ GL7^+ “uncommitted” GC B cells; (C) Ratio of 6OXY-specific (CD38^neg) to (CD38^+) GL7^+ B cells, a measure of GC activation and B cell commitment to GC-dependent pathways; (D) 6OXY-specific IgM^high naive and memory B cells. Data shown are from two independent experiments and expressed as mean±SEM (n=10). […] Statistical symbols: *p<0.05, and […].
Mice were immunized subcutaneously once with OXY-KLH in alum adjuvant in combination with IL-4 (60,000 IU, Bio-Techne Corp., Minneapolis, MN). […]

[3] abbreviates: serum, BALB/c mice, a week after third immunization, mean ± SEM.

The molecule keyhole limpet hemocyanin [KLH] showed a Body weight in data set [1] (BALB/c mice, a week after third immunization, mean ± SEM) of 26.5 ± 0.39 g. For the same molecule, the “Protein, bilirubin, ALT, urea nitrogen, and total cholesterol versus normal range” value in data set [1] (serum, BALB/C mice) is recorded as “in the normal range”. The “Values for AST (aspartate aminotransferase)” value in data set [1] (serum, BALB/C mice, perhaps muscle injury from the injections) was “higher”. Besides, in data set [1] (setting [3]), the ALT was 71.6 ± 3.2^ U/L, the AST is listed as 626 ± 24.7 U/L, the Cholesterol is 161 ± 10.4 mg/dL and the Total bilirubin turned out to be 0.2 ± 0.10 mg/dL. In data set [1] (setting [3]), this molecule showed a Total protein of 5.7 ± 0.32 g/dL and a Urea nitrogen of 20 ± 1.5 mg/dL. For the same molecule, in data set [2] (mouse, in vivo), the “Histopathology, kidney, heart, thymus, stomach, small intestine, large intestine, and pancreas” value is recorded as “No significant pathology”; the “Histopathology, spleen” value is “No significant pathology”. Moreover, the “Histopathology, liver (centrolobular hepatocytes)” value in data set [2] (similar in severity across four treatment groups) is reported as “occasionally moderate vacuolar change”. Besides, the “Histopathology, lungs (interstitium)” value in data set [2] (with concurrent congestion, severity similar across the four treatment groups) is recorded as “mild to occasionally moderately increased numbers of inflammatory cells”.

B1: IL-4: recombinant mouse IL-4 from Bio-Techne Corp., co-administered with OXY-KLH (protein, UniProt P07750 21-140, looked up)
Interleukin-4: HIHGCDKNHLREIIGILNEVTGEGTPCTEMDVPNVLTATKNTTESELVCRASKVLRIFYLKHGKTPCLKKNSSVLMELQRLFRAFRCLDSSISCTMNESKSTSLKDFLESLKSIMQMDYS
As for B1, in the data set on 6OXY-specific GC B cells, the “post-vaccination GC formation (fraction of subjects)” value was “increased” and the “vaccine-specific GC B cells” value is reported as “increased”.
